Test results: publication PMC9352680, “A comprehensive thermodynamic model for RNA binding by the Saccharomyces cerevisiae Pumilio protein PUF4”
Numbering of substitutions follows the chain as printed. Numbers in names are those of the source.

T1: PUF4 RNA-binding domain (Saccharomyces cerevisiae, UniProt P25339 537-888)
T1 sequence: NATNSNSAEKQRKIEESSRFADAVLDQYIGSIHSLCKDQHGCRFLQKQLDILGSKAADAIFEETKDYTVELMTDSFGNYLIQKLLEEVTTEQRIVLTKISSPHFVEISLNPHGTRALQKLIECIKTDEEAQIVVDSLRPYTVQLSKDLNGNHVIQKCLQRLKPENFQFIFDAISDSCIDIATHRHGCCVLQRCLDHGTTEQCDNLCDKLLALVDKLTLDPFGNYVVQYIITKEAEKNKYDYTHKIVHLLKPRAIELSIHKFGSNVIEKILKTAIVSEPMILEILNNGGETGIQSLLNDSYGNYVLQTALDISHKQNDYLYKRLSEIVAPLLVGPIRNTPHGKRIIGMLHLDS

B1: Ic_S4_P5E.1_K5.1_C5.1_H5.1_A5.1_[A7C]_F5.1_[A10T]_T5.1 (ssRNA)
RNA: UUUGACAACUGAUCGUUCUUUCUUGUAUUCUUUUUCUUUCUCGAUCAGUUGUCUUU
B2: Ib_S4_P5E.1_K5.1_C5.1_H5.1_[A4C]_A5.1_[T5G]_F5.1_T5.1 (ssRNA)
RNA: B1 RNA with A27C, U28G, C30A, U33A
B3: Ib_S4_P5E.1_K5.1_C5.1_H5.1_[G2C]_A5.1_[T5A]_F5.1_T5.1 (ssRNA)
RNA: B1 RNA with G25C, U28A, C30A, U33A
B4: Ib_S4_P5E.1_K5.1_C5.1_H5.1_[G2T]_[A4G]_A5.1_F5.1_T5.1 (ssRNA)
RNA: B1 RNA with G25U, A27G, C30A, U33A
B5: Ib_S4_P5E.1_K5.1_C5.1_H5.1_[G2A]_[A4T]_A5.1_F5.1_T5.1 (ssRNA)
RNA: B1 RNA with G25A, A27U, C30A, U33A
B6: Ib_S4_P5E.1_K5.1_C5.1_H5.1_A5.1_[T5A]_[A7T]_F5.1_T5.1 (ssRNA)
RNA: B1 RNA with U28A, C30U, U33A
B7: Ib_S4_P5E.1_K5.1_C5.1_H5.1_[T3C]_A5.1_[A7T]_F5.1_T5.1 (ssRNA)
RNA: B1 RNA with U26C, C30U, U33A
B8: Ib_S4_P5E.1_K5.1_C5.1_H5.1_[T1A]_[A4G]_A5.1_F5.1_T5.1 (ssRNA)
RNA: B1 RNA with U24A, A27G, C30A, U33A
B9: Ib_S4_P5E.1_K5.1_C5.1_H5.1_[T3C]_A5.1_[A7G]_F5.1_T5.1 (ssRNA)
RNA: B1 RNA with U26C, C30G, U33A
B10: Ib_S4_P5E.1_K5.1_C5.1_H5.1_[T1C]_[G2A]_A5.1_F5.1_T5.1 (ssRNA)
RNA: B1 RNA with U24C, G25A, C30A, U33A
B11: Ib_S4_P5E.1_K5.1_C5.1_H5.1_[G2A]_[T3A]_A5.1_F5.1_T5.1 (ssRNA)
RNA: B1 RNA with G25A, U26A, C30A, U33A
B12: Ib_S4_P5E.1_K5.1_C5.1_H5.1_[T1C]_A5.1_[T6C]_F5.1_T5.1 (ssRNA)
RNA: B1 RNA with U24C, U29C, C30A, U33A
B13: Ib_S4_P5E.1_K5.1_C5.1_H5.1_A5.1_[T5C]_[A7T]_F5.1_T5.1 (ssRNA)
RNA: B1 RNA with U28C, C30U, U33A
B14: Ib_S4_P5E.1_K5.1_C5.1_H5.1_[T1C]_A5.1_[T6A]_F5.1_T5.1 (ssRNA)
RNA: B1 RNA with U24C, U29A, C30A, U33A
B15: Ib_S4_P5E.1_K5.1_C5.1_H5.1_[G2C]_A5.1_[T6C]_F5.1_T5.1 (ssRNA)
RNA: B1 RNA with G25C, U29C, C30A, U33A
B16: Ie_S4_P4E.1_K4.1_C4.1_H4.1_[+3T]_A4.1_F4.1_T4.1 (ssRNA)
RNA: B1 RNA with A27U, U28A, C30A, U33A
B17: Ib_S4_P5E.1_K5.1_C5.1_H5.1_[T1C]_A5.1_[T5G]_F5.1_T5.1 (ssRNA)
RNA: B1 RNA with U24C, U28G, C30A, U33A
B18: Ib_S4_P5E.1_K5.1_C5.1_H5.1_[T1A]_A5.1_[T6C]_F5.1_T5.1 (ssRNA)
RNA: B1 RNA with U24A, U29C, C30A, U33A
B19: Ib_S4_P5E.1_K5.1_C5.1_H5.1_[T1C]_A5.1_[A7T]_F5.1_T5.1 (ssRNA)
RNA: B1 RNA with U24C, C30U, U33A
B20: Ib_S4_P5E.1_K5.1_C5.1_H5.1_[A4C]_A5.1_[T5C]_F5.1_T5.1 (ssRNA)
RNA: B1 RNA with A27C, U28C, C30A, U33A
B21: Ib_S4_P5E.1_K5.1_C5.1_H5.1_A5.1_[A7T]_F5.1_[A10T]_T5.1 (ssRNA)
RNA: B1 RNA with C30U
B22: Ib_S4_P5E.1_K5.1_C5.1_H5.1_[T1G]_[A4C]_A5.1_F5.1_T5.1 (ssRNA)
RNA: B1 RNA with U24G, A27C, C30A, U33A
B23: Ib_S4_P5E.1_K5.1_C5.1_H5.1_[T3C]_A5.1_[A7C]_F5.1_T5.1 (ssRNA)
RNA: B1 RNA with U26C, U33A
B24: Ib_S4_P5E.1_K5.1_C5.1_H5.1_A5.1_[T5A]_[A7G]_F5.1_T5.1 (ssRNA)
RNA: B1 RNA with U28A, C30G, U33A
B25: Ib_S4_P5E.1_K5.1_C5.1_H5.1_[T3C]_[A4T]_A5.1_F5.1_T5.1 (ssRNA)
RNA: B1 RNA with U26C, A27U, C30A, U33A
B26: Ib_S4_P5E.1_K5.1_C5.1_H5.1_[G2T]_A5.1_[T5C]_F5.1_T5.1 (ssRNA)
RNA: B1 RNA with G25U, U28C, C30A, U33A
B27: Ib_S4_P5E.1_K5.1_C5.1_H5.1_[T1C]_[T3C]_A5.1_F5.1_T5.1 (ssRNA)
RNA: B1 RNA with U24C, U26C, C30A, U33A
B28: Ib_S4_P5E.1_K5.1_C5.1_H5.1_[T1C]_[A4T]_A5.1_F5.1_T5.1 (ssRNA)
RNA: B1 RNA with U24C, A27U, C30A, U33A
B29: Ib_S4_P5E.1_K5.1_C5.1_H5.1_[T1C]_A5.1_[A7G]_F5.1_T5.1 (ssRNA)
RNA: B1 RNA with U24C, C30G, U33A
B30: Ib_S4_P5E.1_K5.1_C5.1_H5.1_[A4T]_A5.1_[T6A]_F5.1_T5.1 (ssRNA)
RNA: B1 RNA with A27U, U29A, C30A, U33A
B31: Ib_S4_P5E.1_K5.1_C5.1_H5.1_A5.1_[T5C]_[T6C]_F5.1_T5.1 (ssRNA)
RNA: B1 RNA with U28C, U29C, C30A, U33A
B32: Ib_S4_P5E.1_K5.1_C5.1_H5.1_[G2T]_A5.1_[A7C]_F5.1_T5.1 (ssRNA)
RNA: B1 RNA with G25U, U33A
B33: Ib_S4_P5E.1_K5.1_C5.1_H5.1_[T3G]_[A4C]_A5.1_F5.1_T5.1 (ssRNA)
RNA: B1 RNA with U26G, A27C, C30A, U33A
B34: Ib_S4_P5E.1_K5.1_C5.1_H5.1_[G2C]_[A4G]_A5.1_F5.1_T5.1 (ssRNA)
RNA: B1 RNA with G25C, A27G, C30A, U33A
B35: Ib_S4_P5E.1_K5.1_C5.1_H5.1_[T3C]_A5.1_[T5C]_F5.1_T5.1 (ssRNA)
RNA: B1 RNA with U26C, U28C, C30A, U33A
B36: Ib_S4_P5E.1_K5.1_C5.1_H5.1_[T3C]_[A4C]_A5.1_F5.1_T5.1 (ssRNA)
RNA: B1 RNA with U26C, A27C, C30A, U33A
B37: Ib_S4_P5E.1_K5.1_C5.1_H5.1_[A4C]_A5.1_[A7G]_F5.1_T5.1 (ssRNA)
RNA: B1 RNA with A27C, C30G, U33A
B38: Ib_S4_P5E.1_K5.1_C5.1_H5.1_A5.1_[T5C]_[T6A]_F5.1_T5.1 (ssRNA)
RNA: B1 RNA with U28C, U29A, C30A, U33A
B39: Ie_S4_P4E.1_K4.1_C4.1_H4.1_[+3C]_A4.1_F4.1_T4.1 (ssRNA)
RNA: B1 RNA with A27C, U28A, C30A, U33A
B40: Ib_S4_P5E.1_K5.1_C5.1_H5.1_[G2C]_[A4T]_A5.1_F5.1_T5.1 (ssRNA)
RNA: B1 RNA with G25C, A27U, C30A, U33A
B41: Ib_S4_P5E.1_K5.1_C5.1_H5.1_[G2A]_A5.1_[T5G]_F5.1_T5.1 (ssRNA)
RNA: B1 RNA with G25A, U28G, C30A, U33A
B42: Ib_S4_P5E.1_K5.1_C5.1_H5.1_[G2A]_A5.1_[A7G]_F5.1_T5.1 (ssRNA)
RNA: B1 RNA with G25A, C30G, U33A
B43: Ib_S4_P5E.1_K5.1_C5.1_H5.1_[T3G]_[A4T]_A5.1_F5.1_T5.1 (ssRNA)
RNA: B1 RNA with U26G, A27U, C30A, U33A
B44: Ib_S4_P5E.1_K5.1_C5.1_H5.1_[G2A]_A5.1_[T6A]_F5.1_T5.1 (ssRNA)
RNA: B1 RNA with G25A, U29A, C30A, U33A
B45: Ib_S4_P5E.1_K5.1_C5.1_H5.1_[G2T]_A5.1_[T5A]_F5.1_T5.1 (ssRNA)
RNA: B1 RNA with G25U, U28A, C30A, U33A
B46: Ib_S4_P5E.1_K5.1_C5.1_H5.1_[G2C]_A5.1_[T6A]_F5.1_T5.1 (ssRNA)
RNA: B1 RNA with G25C, U29A, C30A, U33A
B47: Ib_S4_P5E.1_K5.1_C5.1_H5.1_[T3C]_A5.1_[T5A]_F5.1_T5.1 (ssRNA)
RNA: B1 RNA with U26C, U28A, C30A, U33A
B48: Ib_S4_P5E.1_K5.1_C5.1_H5.1_[A4C]_A5.1_[A7C]_F5.1_T5.1 (ssRNA)
RNA: B1 RNA with A27C, U33A
B49: Ib_S4_P5E.1_K5.1_C5.1_H5.1_[T1C]_[G2T]_A5.1_F5.1_T5.1 (ssRNA)
RNA: B1 RNA with U24C, G25U, C30A, U33A
B50: Ib_S4_P5E.1_K5.1_C5.1_H5.1_[T1A]_[T3C]_A5.1_F5.1_T5.1 (ssRNA)
RNA: B1 RNA with U24A, U26C, C30A, U33A
B51: Ic_S4_P4E.1_K4.1_C4.1_H4.1_A4.1_[T5A]_F4.1_T4.1 (ssRNA)
RNA: UUUGACAACUGAUCGUUCUUUCUUGUAAAUUAUUCUUUCUCGAUCAGUUGUCUUU
B52: Ia_S4_P4E.1_K4.1_C4.1_H4.1_A4.1_[T7C]_F4.1_T4.1 (ssRNA)
RNA: B51 RNA with A28U, U30C
B53: Ia_S4_P4E.1_K4.1_C4.1_H4.1_A4.1_[A6C]_F4.1_T4.1 (ssRNA)
RNA: B51 RNA with A28U, A29C
B54: Ia_S4_P4E.1_K4.1_C4.1_H4.1_A4.1_[A6T]_F4.1_T4.1 (ssRNA)
RNA: B51 RNA with A28U, A29U
B55: Ia_S4_P4E.1_K4.1_C4.1_H4.1_A4.1_[T7A]_F4.1_T4.1 (ssRNA)
RNA: B51 RNA with A28U, U30A
B56: Ic_S4_P4E.1_K4.1_C4.1_H4.1_A4.1_[T7G]_F4.1_T4.1 (ssRNA)
RNA: B51 RNA with A28U, U30G

molecular target: T1, PUF4 RNA-binding domain; assay: Mg; RNA-MaP; 20 mM Na-HEPES pH 7.4, 30 mM KOAc, 0.75 mM MgCl2, 0.1% Tween-20, 5% glycerol, 0.1 mg/mL BSA, 2 mM DTT; 25 C; 0.0125-409.6 nM protein; conditions: tags: N-His6-TEV cleaved; C-SNAP kept, Cy3B-labelled; label: tethered on chip by stalled RNA polymerase

Binder | Kd [nM]
UCUCUUUGUUUAUAUCUCUU (ssRNA) [Ia_S1_P3E.1_K3.1_C3.1_H3.1_[A4T]_A3.1_F3.1_T3.1] | 478
B1 | 13.8
B2 | 34.4
B3 | > 2300
B4 | 492
B5 | 1440
B6 | 5.23
B7 | 414
B8 | 1260
B9 | 1520
B10 | 1660
B11 | 2140
B12 | 637
B13 | 1.71
B14 | 1040
B15 | 1940
B16 | 5.86
B17 | > 2300
B18 | > 2300

Binder | Kd [nM]
B19 | 370
B20 | 19.9
B21 | 10.7
B22 | > 2300
B23 | 1630
B24 | 15.3
B25 | 453
B26 | > 2300
B27 | > 2300
B28 | 1050
B29 | 2200
B30 | 16
B31 | 1.7
B32 | > 2300
B33 | 1880
B34 | 455
B35 | 204
B36 | 862
B37 | 112

Binder | Kd [nM]
B38 | 3.97
B39 | 5.86
B40 | > 2300
B41 | 1940
B42 | 904
B43 | 745
B44 | 696
B45 | > 2300
B46 | > 2300
B47 | 872
B48 | 83.8
B49 | > 2300
B50 | > 2300
B51 | 1.69
B52 | 0.515
B53 | 2.17
B54 | 1.24
B55 | 1.23
B56 | 1.66
